# The DeepSol protein solubility set
# Experiment: soluble on expression in E. coli; label from the status in PepcDB or PDB records
row,Sequence,soluble on expression in E. coli
1,MGSDKIHHHHHHMAKQQFNKLIWLVDTIFRNAPVTFAEINRRWRAGDDNRSDIPLRTFHNHRQAIEEIFDINIECDKRNNTYYIADAEGMLGDKLKMWLLNSFSLNNVLQENVDMKNRIVFEEVPSGVQFMDLVIDAMRSGRVLAMEYQAYNWEHSKDVLLEPYFVKLFRHRWYLIGINREYKAFRSYSLDRIKRIALSEETFNFPRKFTPQDHFRDSFGIIRDENLLPQHTVLRTTISQAPYLRNLPLHSSQKEIAVTESYVDFELYISHTYDFIQELLSKGAAVEVLKPQSLRDKIKAEIQNMQTLYHL,not soluble
2,LSDEDFRAVFGMTRSAFANLPLWRQQNLRRERGLF,soluble
3,MSHDSSGEYMVSQVLKCVKFKDLVRKALNAEAKFSPASVEYDKRRHSKYAYLVHWRGYDWKERTWEPEENLENCEELQKFKERNNMSLDHLTFEHHYEHSTWRRISLASEKCVTNRYLKTDDEIEEKRARKKAKLEEQNRKEQAKNPHASAETEPAVKKKKIEGVGSRIPKISDREGAGTSGQSSSNVSTPGITPLDNKTPRMQKKSNEIGQASTPECAIATLSIGTPQPSIIDSTYDQSDIANGSTSPQPQPVFKRKMNGQDVSDYSVHQGGTFSDGSAIEGSTSRESEDMDCTQETKKALQKAIESAREECEEIEKTIKKYPLQVTSSRVVTGFSPALTLRKFRRCQSLEMLSDHFNNNAEMEIFGKNFENSVRLDADAKPVVIKIYPQEQELFLTKQRKMPSLEMEQLVYENLVKENANNIKIAMHNIRPDKNFAQLLECLSHAYSKDDNIRFETIFNEGFPPSDEYDCRRFQAIVFLIAYCKHRLWKADPKGMAIVEASDAVKEGEIREQQIICSDRHRKCAWLQVFLKLMPDRFKFLETSGQCYHGWEGDDGPFRDDVFFHCMKYGAECQKRLFLDFNKPIGIQEETVGDYSVDAMHLLAVQYGNIQRIPSYLSIGGLDINALATHLPTKRVMRLQHYLKVWIEAHKSETTATEDRKKYYRYLNDVIRLTSESLEIFLENEVTKMIFSRMGGRWKIRMDLTYPHILRCSPLSNKSNGGDGTHQVLSCLFYPEAIGYRDGLENSKGADTEKIDELKTSQKRYKKMIEEGKGRLVLALYRIDIEFRCNLAEKEQFSLPKFTLIESDDGFKIEKLTLLRQTEGLTCYEADIGMFEMTPFSSPGCRYFGISDKAHEKDLVVPGNAHIEMRAEVDQPISFVTQLFFIKKNV,not soluble
4,MGSSHHHHHHSSGLVPRGSHMIVREGSAEILVPEVYHGPGKRGTGFYNADQKINRDITIEFIKKMGIRNVLDGFGGTGIRGIRISKETDSAVTISEVSPDSYRLIRDNVERNGSQASVINDSFECVLQHGAYEYVDVDPYGSPVPYLDAALMGVKRNGFLGVTATDQSALTGSVPHKTRIRYDALIKNDTFRHEMGIRLLIGYMAKRAASLGRFIDPLISIWHGHYYRVFVRVRKGFEGAGRMMQNLGYVNKHNLLSGIYQDMDEGPVWKGNLQDNAVAEAVLASAGHKAFNPEENRLLFCDLTDIARARHTSLPDIESVIDALSSSGHAASRTMFSPTGIKTDASCDLVESLMMDTLHRRSPA,soluble
5,MSPSPLISHRAASADLAGMVRQARQRILLQGNVPGFDVARQIELLHGLAESELGRFLLLYRGLNAEWTHRLVTHQPGSGALAPLERVFYERLPAVLATRERHGHFRRALQRHLRPGCVVASVPCGWMSELLALDYSACPGVQLVGIDYDPEALDGATRLAAGHALAGQITLHRQDAWKLDTREGYDLLTSNGLNIYEPDDARVTELYRRFWQALKPGGALVTSFLTPPPALSPDSPWDMQAIDPHDLQLQQLVFTRLIQPRWNALRTHAQTRAQLEEAGFTDLRFEDDRARLFPTVIARKPA,soluble
6,MLVAPFASQLPFVEETLHSSYQALQWGKNIFAIAHKTLSARLLNTVFPTEERTQPLSPELQAWLKERYEALLQQDWQDAAAGFYPATLLFDAPWEEFLRFYPLLLLDLPQMWQRARSRQFQEFAHNVRLEDYPQYYRQNFHYQTDGYLSDTSANLYDIQVELLFGGTADAMRRRVIAPIAQQVVAHPPTPPLRILDVACGTGRTLKQLRYAFPGAVLFGLDLSPAYLRKANALLATQTGALPQLIQGNAESLPYVDSYFSAITCVFLFHELPAPVRQNVIHECARVLQPGGIFVICDSIQSLDSPEQRPMMENFANLFHEPFYRNYIEDDLNLRLEKAGLVVKEVQHHFMSKYWVAVKPSLEHHHHHH,not soluble
7,MKGGIVHSDGSYPKDKFEKINGTWYYFDSSGYMLADRWRKHTDGNWYWFDNSGEMATGWKKIADKWYYFNEEGAMKTGWVKYKDTWYYLDAKEGAMVSNAFIQSADGTGWYYLKPDGTLADRPEFTVEPDGLITVK,soluble
8,MSLGISNAIDNSVRARVLGIKTEFRNFNTGRTFFLPQHVALLGQGNTAATYELTPFRATSAAQVGQRFGFGSPLHLAALQLLPDNNDGLRSIPLTIFPMGDNDAGVAAEGVLDLSGTASATATVRVRIGSQRSSLVTIPTGTTAEQAAALLVAGIQGNPFMPMTAAVDGTNANEVDVTAKWQGLSGNDLVVSIEGSIPGITVAITQPTGGAADPEVADTLALFGENVWYTQIVSCFNTANTDALDAFETFGEGRWDPILRRPLAVFTGTNETDPNTLAAIGDARRAQRTNLVTPVPGAQNLPCEIAAAWVARVARSANNDPASDFARLTLPGLTPGTDAQQWTHTQRDLLVKAGISTSIVRDGVAEISDTVTTYHPTGEVNPGYLFYKDTVKASNVLFNLDLIFNTREWDGAPLIPDDQPTTNARAKRPKDAVAVLSVLANNLGLDAIISDVPFTLENIRASINDQNPNRLDIIFPAKNSGNANIISADYFFGFFLGTEGHHHHHH,soluble
9,GRGSEHLTIGFKVENAHDRILKTIKTHKLKNYIKESVNFLNSGLTKTNYLGSSNDNIELVDFQNIMFYGDAEVGDNQQPFTFILDTGSANLWVPSVKCTTAGCLTKHLYDSSKSRTYEKDGTKVEMNYVSGTVSGFFSKDLVTVGNLSLPYKFIEVIDTNGFEPTYTASTFDGILGLGWKDLSIGSVDPIVVELKNQNKIENALFTFYLPVHDKHTGFLTIGGIEERFYEGPLTYEKLNHDLYWQITLDAHVGNIMLEKANCIVDSGTSAITVPTDFLNKMLQNLDVIKVPFLPFYVTLCNNSKLPTFEFTSENGKYTLEPEYYLQHIEDVGPGLCMLNIIGLDFPVPTFILGDPFMRKYFTVFDYDNHSVGIALAKKNL,soluble
10,DLYDDDDKDPTLMKISRGLLKTILEAAKSAHPDEFIALLSGSKDVMDELIFLPFVSGSVSAVIHLDMLPIGMKVFGTVHSHPSPSCRPSEEDLSLFTRFGKYHIIVCYPYDENSWKCYNRKGEEVELEVVEKD,soluble
11,SRMNPTIMVPGSEATQERFNETLASLNKQGKKHSILKLTVHKDNSISYSGQIAASDNRPYIVVAFADNKDSYTTIKKQAKWLDHALDELQKKYHFKNFNAIGHSNGGLDWTVYLENYYAKENFHLNTLMTIGTPYNFEVVNSSNHTQMLQDLIAAKDALPDDLTVYNVAGTNSYDGDYIVPITSVETGKYIFQKTIKQYTQITVTGNEAEHSDLPTNKEVLDLISENILNNNRKKVDPKNQN,not soluble
12,MTQANLSETLFKPRFKHPETSTLVRRFNHGAQPPVQSALDGKTIPHWYRMINRLMWIWRGIDPREILDVQARIVMSDAERTDDDLYDTVIGYRGGNWIYEWATQAMVWQQKACTEEDPQLSGRHWLHAATLYNIAAYPHLKGDDLAEQAQALSNRAYEEAAQRLPGTMRQMEFTVPGGAPITGFLHMPKGDGPFPTVLMCGGLDAMQTDYYSLYERYFAPRGIAMLTIDMPSVGFSSKWKLTQDSSLLHQHVLKALPNVPWVDHTRVAAFGFRFGANVAVRLAYLESPRLKAVACLGPVVHTLLSDFKCQQQVPEMYLDVLASRLGMHDASDEALRVELNRYSLKVQGLLGRRCPTPMLSGYWKNDPFSPEEDSRLITSSSADGKLLEIPFNPVYRNFDKGLQEITGWIEKRLC,not soluble
13,GPGSMLRLSLRRWCAAAASGSSTSTAHGSPPATTLPDFYGKSFSVSPRAWAQITRKNSEEGFTNDARYLRLAIDSGGCHGYVYKFSFEKNDEFSCEGDVAIAEVDAVSPSDEAFTGAQPSPRVVVDTLSASKLANATLDYHSELKGSAFVVVGNELVDESCACAMSFSMRKTTRQSVASSSSARGASSGDGGGHGGSGAAAPPAGSSLAANARPISRRSTTRATS,soluble
14,MKKYLLSFLLSMILTLTSHAESNPDPTTYPDVELSPPPRISLRSLLTAQPIKNDHYDSHNYLSTHWELIDYKGKEYEKLRDGGTLVQFKVVGAAKCFAFPGEGTTDCKDIDHTVFNLIPTNTGAFLIKDALLGFCMTSHDFDDLRLEPCGISVSGRTFSLAYQWGILPPFGPSKILRPPVGRNQGS,soluble
15,MSLDENLIEEIKLADDISKGYNAALNYLSYQLRTRKEVEDKLRSLDIHEDYISEIINKLIDLDLINDKNYAESYVRTMMNTSDKGPKVIKLNLSKKGIDDNIAEDALILYTDKLQVEKGVTLAEKLANRYSHDSYRNKQNKIKQSLLTKGFSYDIIDTIIQELDLIFDDDTEREILLEKANKLWSRYDNLDIKKRKFKIQQALFKQGFSFSNITSALDEIEDTNEGHHHHHH,soluble
16,GSSHHHHHHGSMLNMWKVRELVDKATNVVMNYSEIESKVREATNDDPWGPSGQLMGEIAKATFMYEQFPELMNMLWSRMLKDNKKNWRRVYKSLLLLAYLIRNGSERVVTSAREHIYDLRSLENYHFVDEHGKDQGINIRQKVKELVEFAQDDDRLREERKKAKKNKDKYVGVSSD,soluble
17,MQTSAQKVIQDLTNRVQAEKEELEQLERERDLWKYNAQMNDKEALRGNERKKNIMKKGGPLCYFCNKNHVPSLCRTYPDGISRQKSLENQGKCIKCLKIGHQNGDNFCEKHHIVCRTCQQSHVKAVCPILYPKKDTPPKILRARRRSLIRAQKKKDFQEPENKHEQLTSTKAPCQENWSDF,not soluble
18,MGSDKIHHHHHHMTHRITILCDNTVGPVSGTLGEHGFAALVEWEGGSLLFDTGMGETLLRNAQRLGRNLAAVPRVVISHGHYDHGGGLWPLLRTCGSKTVLAHPGIFAPRYRVKDTGDPLSIGIPFDEAFLRGQGAHFDFNDRFREVGPGLYLTGEVPRTTAFETGDTGLFCDEAGCRPDPISDDQSLVIRTERGLVLLLGCCHAGVVNTARWALECTGETVVHTVIGGTHLGFCGREQLDETVKSLRELGVHKLVGSHCTGFAAAARLMHEFPGRFHPSAVGYTLEV,not soluble
19,MIVILDNGGQYVHRIHRSLKYIGVSSKIVPNTTPLEEIESNKEVKGIILSGGPDIEKAKNCIDIALNAKLPILGICLGHQLIALAYGGEVGRAEAEEYALTKVYVDKENDLFKNVPREFNAWASHKDEVKKVPEGFEILAHSDICQVEAMKHKTKPIYGVQFHPEVAHTEYGNEILKNFCKVCGYKFE,soluble
20,MIVLVTGATAGFGECITRRFIQQGHKVIATGRRQERLQELKDELGDNLYIAQLDVRNRAAIEEMLASLPAEWCNIDILVNNAGLALGMEPAHKASVEDWETMIDTNNKGLVYMTRAVLPGMVERNHGHIINIGSTAGSWPYAGGNVYGATKAFVRQFSLNLRTDLHGTAVRVTDIEPGLVGGTEFSNVRFKGDDGKAEKTYQNTVALTPEDVSEAVWWVSTLPAHVNINTLEMMPVTQSYAGLNVHRQ,soluble
21,MAMQLEICANSAASCRQAELGGATRVELCAGIPEGGTTPSAGEMAVARSLIAIPIHVIIRPRAGDFVYSSEEIEAMCYDIRVVRSLGMEGVVFGCLTPEGGYDEEANSRLLKEAQGMQLTFHRAFDVCAAPFEMLEKLIAAGFHRVLTSGCAPTALEGKDMIGALNKQATGRIGIMAGCGIRLGNIETLARHTGITQFHSSLRHDIPSSMRFRRPEVSMGGTVKIDEYSRPETSADMVRQAVDILQGILEHHHHHH,not soluble
